Results on two molecules are retold here after article PMC10243135.

Like-named read-outs stand apart in the source and are kept apart here.

The target of data set [1] is T1, WhiA;WhiB;sigmaA (sigma HrdB);RbpA;RNA polymerase core (alpha2 beta beta' omega) (Streptomyces venezuelae;Streptomyces …, UniProt F2RGQ4;F2R611;F2R7X6;F2RBH1;F2RJV9;F2RIS5;F2RIS6;F2RCK7 …, ||||). The data set can be described thus: cryo-EM.
The target of data set [2] is T1, WhiA;WhiB;sigmaA (sigma HrdB);RbpA;RNA …. The data set can be described thus: cryo-EM. The source holds these as a separate data set.

B1: sepX promoter (cryo-EM, RPo) (dsDNA)
DNA 1: GTGATATCAGCCAGATCGTGCGACACACCGGGCCAATTGGCCGATGCCGTCCCGCGAACCCCTCTACCGTGTGAGGCGTGAGCAGCAGCGGCCTCATCGC
DNA 2: GCGATGAGGCCGCTGCTGCTCACGCCTCACACGGTAGAGGGGTTCGCGGGACGGCATCGGCCAATTGGCCCGGTGTGTCGCACGATCTGGCTGATATCAC
B1: the binding result in data set [1] is reported as “binds”.

B2: sepX-2 promoter (cryo-EM, RPo-2) (dsDNA)
DNA 1: GTGATATCAGCCAGATCGTGCGACACACCGGGCCAATTGGCTTGACACC
DNA 2: GGTGTCAAGCCAATTGGCCCGGTGTGTCGCACGATCTGGCTGATATCAC
As to B2, the binding result in data set [2] is given as “binds”.
